Two molecules from PMC2924745 (Nature structural & molecular biology, 2010) can be followed below.

Test [1] deals with MetIN, the E. coli D/L-methionine ABC importer (His-tagged) (Escherichia coli) (UniProt P30750). Nature of the test: SPR.
In test [2] the target is T1, BtuCD, the E. coli vitamin B12 ABC transporter (His-tagged) (Escherichia coli, UniProt P06609;P06611).
T1 sequence 1: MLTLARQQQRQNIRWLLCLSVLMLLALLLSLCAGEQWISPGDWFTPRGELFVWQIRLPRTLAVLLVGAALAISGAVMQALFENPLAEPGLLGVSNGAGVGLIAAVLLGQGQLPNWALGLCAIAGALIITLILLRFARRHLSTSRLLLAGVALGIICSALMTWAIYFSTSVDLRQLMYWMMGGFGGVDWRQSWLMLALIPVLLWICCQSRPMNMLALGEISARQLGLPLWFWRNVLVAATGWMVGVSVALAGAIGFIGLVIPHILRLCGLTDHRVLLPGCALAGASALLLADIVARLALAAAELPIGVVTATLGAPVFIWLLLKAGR
T1 sequence 2: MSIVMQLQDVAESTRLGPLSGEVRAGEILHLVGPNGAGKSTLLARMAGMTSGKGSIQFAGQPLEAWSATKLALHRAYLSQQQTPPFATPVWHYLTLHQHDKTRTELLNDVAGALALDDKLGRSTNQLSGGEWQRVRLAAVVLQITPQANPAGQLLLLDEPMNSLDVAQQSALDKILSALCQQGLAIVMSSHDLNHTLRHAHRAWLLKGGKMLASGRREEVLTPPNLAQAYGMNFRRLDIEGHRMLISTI
Kind of test: cell-based or functional assay.

For test [3], the target named is T1, BtuCD, the E. coli vitamin B12 ABC …. Kind of test: co-sedimentation.

Sequence of MetIN, the E. coli D/L-methionine ABC importer (His-tagged) (Escherichia coli) (P30750 whole entry, chain 1 of 2): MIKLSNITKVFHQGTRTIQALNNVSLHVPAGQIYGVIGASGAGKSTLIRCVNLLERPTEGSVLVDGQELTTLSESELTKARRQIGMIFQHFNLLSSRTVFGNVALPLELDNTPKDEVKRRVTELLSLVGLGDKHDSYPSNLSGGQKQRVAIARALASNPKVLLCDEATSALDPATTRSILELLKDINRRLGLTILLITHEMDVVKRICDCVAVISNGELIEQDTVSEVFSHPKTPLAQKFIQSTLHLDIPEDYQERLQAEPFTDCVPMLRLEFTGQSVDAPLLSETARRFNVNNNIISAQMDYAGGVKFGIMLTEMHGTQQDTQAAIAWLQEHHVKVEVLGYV
Sequence of MetIN, the E. coli D/L-methionine ABC importer (His-tagged) (Escherichia coli) (P31547 whole entry, chain 2 of 2, further chain): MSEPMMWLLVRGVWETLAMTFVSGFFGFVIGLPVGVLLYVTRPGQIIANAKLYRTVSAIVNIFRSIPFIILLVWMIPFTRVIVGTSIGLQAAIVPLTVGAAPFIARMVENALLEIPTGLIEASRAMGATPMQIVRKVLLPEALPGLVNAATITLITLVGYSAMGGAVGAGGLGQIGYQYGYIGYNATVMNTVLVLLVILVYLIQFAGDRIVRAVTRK

Usually Kd stands for the free concentration of one partner at which half of the binding sites on the other are occupied at equilibrium, for simple one-to-one binding. The low end stands for a tighter complex, the high end for a looser complex. As to “MetQ, the binding protein of the E. coli D/L-methionine importer (from UniProt P28635 23-271) (natural protein)”, in test [1], the equilibrium dissociation constant (Kd) amounted to 74 µM.

B1: BtuF, the vitamin B12 binding protein of E. coli, with a C-terminal FLAG tag (natural protein)
chain: APRVITLSPANTELAFAAGITPVGVSSYSDYPPQAQKIEQVSTWQGMNLERIVALKPDLVIAWRGGNAERQVDQLASLGIKVMWVDATSIEQIANALRQLAPWSPQPDKAEQAAQSLLDQYAQLKAQYADKPKKRVFLQFGINPPFTSGKESIQNQVLEVCGGENIFKDSRVPWPQVSREQVLARSPQAIVITGGPDQIPKIKQYWGEQLKIPVIPLTSDWFERASPRIILAAQQLCNALSQVD
Turning to B1, the “stimulation of ATP hydrolysis rate of BtuCD” value in test [2] was less than 2 fold. For the same molecule, the dissociation constant (Kd) in test [3] is less than 0.02 µM.
